Laboratory results as given in patent US20120207760A1.

B1: TCN-539 (5056_A08) (antibody, V domains shown)
VH: QVQLVESGGGVVQPGRSLRLSCAASEITFITYAMHWVRQAPGKGLEWVALISDDGSNKFYADSVKGRFTISRDNSKNTLYLQMNSLRAEDTAAYYCAREGVYFDSGTYRGYFDYWGQETLVTVSS
VL: EIVLTQSPATLSLSPGERATLSCRASQSVSSYLAWYQQKPGQAPRLLIYDASNRATGIPARFSGSGSGTDFTLTISSLEPEDFAVYYCQQRSHWPPITFGQGTRLEIK
B2: TCN-542 (5079_A16) (antibody, V domains shown)
VH: QVQLQESGPGLVKPSQTLSLTCTVSGGSISSGNYYWNWVRQHPGKGLEWIGYIYYRGSTFYNPSLKSRVTISIDTSKNQFSLRLSSVTAADTAVYYCAKDTRSSLDNYQYGMDVWGQGTTVTVSS
VL: QTVVTQEPSLTVSPGGTVTLTCASSTGAVTSSYFPNWFQQKPGQAPRPLIYSTTIRHSWTPARFSGSLLGGKAALTLSGVQPEDEADYYCLLYSGGDPVAFGGGTKLTVL
B3: TCN-533 (5256_A17) (antibody, V domains shown)
VH: QVQLVQSGADVKKPGSSVTVSCKASGGSFSNYGINWVRQAPGQGLEWMGGIIPLINAPNYAPKFQGRVTITADMFSNIVSLQLTSLRTDDTAVYYCARRKMTTAIDYWGQGTLVTVSS
VL: QPVLSQPPSASASLGASVTLTCTLSSGFDNYQVAWYQQRPGKGPRFVMRVGNGGNVASKGDGIPDRFSVSGSGLNRYLTIKNIQEDDESDYYCGADHGSGNNFVSPYVFGGGTKLTVL
B4: TCN-551 (5243_D01) (antibody, V domains shown)
VH: EVQLVQSGSEVKKPGESLKISCKGSGYSFSNYWIGWVRHMPGKGLEWMGIIYPGDSDTRYSPSFQGQVTMSADKSSSTVYLQWSSLKASDTAIYYCARRGGHSFGYGSGGDTHSEFDSWGQGTLVTVSS
VL: QSVLTQSPSVSAAPGQKVTISCSGSDSNIGDYFVCWYQHLPGKPPQLLIYENNKRPSGIPDRFSGSKSGTSATLGITGIQTGDEADYYCATWDGSLSAWVFGGGTKLTVL

Tests used:
Conditions in all cases: remark: other sources report otherwise
[1] = target: recombinant soluble homotrimeric HA of A/Common magpie/Hong Kong/5052/07 - H5N1 (Influenza A virus A/common magpie/Hong Kong/5052/2007 (H5N1)); experiment: micro-array; captured IgG, V5-tagged trimeric HA
[2] = target: recombinant soluble homotrimeric HA of A/common magpie/Hong Kong/5052/07 (H5N1) (Influenza A virus A/common magpie/Hong Kong/5052/07 (H5N1)); experiment: microarray, BCC supernatant IgG, trimeric HA
[3] = target: Hemagglutinin of influenza A/Japan/305/57 (H2N2), on inactivated whole virions (Influenza A virus A/Japan/305/1957 (H2N2)), P03451; experiment: ELISA, B cell culture supernatant on inactivated whole virions

Binder | Trimeric HA Binding: RLU [1] | also measured
B1 | 1440 RLU | 
B2 | 1670 RLU | 
B3 |  | Trimeric HA Binding: RLU [2]: 44500 RLU
B4 |  | OD450 [3]: 0.19 OD450
